Reference: US20140315817A1

Target: FLAG-tagged, single-chain human FcRn (human) (UniProt P61769)
Assay: ELISA at pH 5.5, HSA variant coated, FLAG-tagged single-chain FcRn titrated; column '~Kd at pH 5.5', rank 13; the sheet gives the mutation of HSA-18 as V424I

FLAG-tagged, single-chain human FcRn (human), sequence (P61769 other isoform, or with tags, fused parts or gaps limits assumed): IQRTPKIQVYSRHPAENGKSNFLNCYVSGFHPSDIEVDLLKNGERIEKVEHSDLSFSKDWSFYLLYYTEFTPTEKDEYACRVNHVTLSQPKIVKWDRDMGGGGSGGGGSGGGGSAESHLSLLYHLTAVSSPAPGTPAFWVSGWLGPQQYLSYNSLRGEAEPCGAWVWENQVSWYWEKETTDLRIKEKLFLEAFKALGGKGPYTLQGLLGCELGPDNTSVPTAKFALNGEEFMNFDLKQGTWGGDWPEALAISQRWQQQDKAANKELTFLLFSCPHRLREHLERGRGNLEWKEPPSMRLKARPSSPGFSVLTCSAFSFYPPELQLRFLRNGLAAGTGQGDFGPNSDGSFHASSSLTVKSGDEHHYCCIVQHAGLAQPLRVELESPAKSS

Kd: > 100 nM
Substance: hsa-18: full length HSA V241I (from UniProt P02768 25-609)
